Article PMC3667858 (PLoS ONE, 2013)

How the values were obtained:
[1] = biological target: T1, FMDV Asia 1 virus-like particles (VLPs) (Foot-and-mouth disease virus serotype …, UniProt A2I7M2); test: SPR; conditions: both partners purified
T1 construct: also called Asia 1 VLPs antigen; recombinant VLPs; copies: + +

[2] = biological target: T2, FMDV Asia 1 virions in infected BHK-21 cells (Foot-and-mouth disease virus serotype …, UniProt A2I7M2, strain); test: immunostaining of cells or tissue; conditions: one partner purified
T2 construct: also called FMD virions; FMD Asia 1 virions; copies: + + +

B1: sdAb-C6 (VHH)
VHH: HVQLVESGGGSVQAGGSLRLSCTYSVYTYSSDSMAWFRQAPGKEREGVAGIYIGSGSTLYADSVKGRFTISQDKAKNTVYLQMNSLKPEDTALYYCAAGGNWYDGVLNVERAFAYWGQGTQVTVSS
notes: also called clone 6; sdAb-6
[1]
  Kd: 0.44 nM
  koff: 0.000703 s⁻¹
  kon: 1.6e+06 M⁻¹ s⁻¹

B2: Alexa Fluor-488-conjugated-sdAb-C6 (VHH)
VHH: B1 VHH
notes: also called AF488-C6; AF488-C6 probe
[2]
  binding result: binds

B3: QDs-C6 probe (VHH)
VHH: B1 VHH
notes: also called QD-sdAb probe; QDs-sdAb
[2]
  binding result: binds
